According to paper PMC9359980:

Legend:
[1] = target: Photozipper (PZ), wild-type (Vaucheria frigida); assay: high-speed atomic force microscopy (HS-AFM); molecules on mica in Buffer-B (1 mM NaCl, 20 mM Tris-HCl pH 7, 1 mM DTT, 0.2 mM PMSF), room temperature, dark conditions (prepared under dim red light); 13-38 nM protein; dimer to monomers
[2] = target: Photozipper (PZ), wild-type (Vaucheria frigida); assay: high-speed atomic force microscopy (HS-AFM); molecules on mica in Buffer-B (1 mM NaCl, 20 mM Tris-HCl pH 7, 1 mM DTT, 0.2 mM PMSF), room temperature, blue light illumination (450 nm, about 4.3 mW/mm^2); 13-50 nM protein; dimer to monomers

average dimer lifetime [1]: 8.1 s
stoichiometry N [1]: 2
average dimer lifetime [2]: 86 s
stoichiometry N [2]: 2
time constant of the dimerization rate (38 nM PZ, after the start of blue light) [2]: 255 s
Substance: Photozipper (PZ), wild-type (domain or fragment)
